Data from the supplement of paper PMC12764529.
± gives the half width of the 95% confidence interval.

How the values were obtained:
[1] = folding stability dG unfold from trypsin proteolysis; higher = more stable
How it was run: (§1)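 Unfolding free energy was derived, per protease or combined, by relating Bayesian-fitted K50 values from sequencing counts to a sequence-predicted unfolded-state K50 and a shared folded-state K50. The underlying digests exposed cysteine-free mini-proteins under 80 residues, in a PA-tagged cDNA display construct, to trypsin and chymotrypsin at 11 threefold-diluted concentrations and to a no-protease condition. A filter kept only designs with AlphaFold2 dimer inter-PAE above 15.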

[2] = folding stability dG unfold from chymotrypsin proteolysis; higher = more stable
How it was run: as §1

[3] = folding stability dG unfold (combined trypsin and chymotrypsin); higher = more stable
How it was run: as §1

Sequence	folding stability dG unfold [1]	folding stability dG unfold [2]	folding stability dG unfold [3]
SAGGGWPWVVKFEPPDGKEMEFVIPFNPKKNWYWIKMPGNGKTVPVPLDDLEEQPGFQIDEIEPLDDLSAGG [r13_994_TrROS]	-0.0768 ± 0.33 kcal/mol	1.31 ± 0.48 kcal/mol	1 ± 0.27 kcal/mol
SAGGIDLDNMSPEEAKERARDTVREFRELFPPEKKYKFKIKVTIDYRDPGNGRQRTVTVEAPIEFTPDSAGG [r13_385_TrROS]	0.636 ± 0.12 kcal/mol	0.862 ± 0.28 kcal/mol	0.753 ± 0.24 kcal/mol
SAGGIELKINIQMPAEEAVEFIRNFIEELGYEIEDIEVERDPENGMVSVPIEFEIKPVPPVDPEDQKSAGGS [r16_584_TrROS]	0.144 ± 0.076 kcal/mol	0.166 ± 0.26 kcal/mol	0.315 ± 0.19 kcal/mol
SAGGIELTIPLPNGMLIKIKIESIHIQPVPVWRKKKDPDGKPKDWEPQPFTFSISIRFSIEIYDPDDLSAGG [r13_848_TrROS]	3.47 ± 0.2 kcal/mol	5.07 ± 0.16 kcal/mol	4.97 ± 0.35 kcal/mol
SAGGIEVEAESERVEGGVLRVTVTAADPDGVPIVLELPVPPGAPEITEEEARELAVEAALKVAAELASAGGS [r8_123_TrMRF]	0.887 ± 0.034 kcal/mol	0.517 ± 0.034 kcal/mol	0.699 ± 0.053 kcal/mol
SAGGIKEAFEAGVEVKDVEVPVLFPDGSEAEVVEVDPVDDGVRVVLRNPVTGELFEREIPPELIEPRPSAGG [r13_340_TrMRF]	0.653 ± 0.019 kcal/mol	0.172 ± 0.053 kcal/mol	0.484 ± 0.07 kcal/mol
SAGGIKIHVEREGNYYRIKIKWPNNNEISIPFDSPEDAEEQAEEQLQKQFPNMPPENVKIDEIEPYPPSAGG [r13_887_TrROS]	0.173 ± 0.11 kcal/mol	0.504 ± 0.15 kcal/mol	0.469 ± 0.099 kcal/mol
SAGGIKIPPGQEIEMPFKVRVGGEPYPFRIEIKILKVNPDNGHFLIKMEIEDPENGQPIAEFTFFIPPSAGG [r13_582_TrROS]	2.64 ± 0.25 kcal/mol	4.4 ± 0.23 kcal/mol	3.35 ± 0.39 kcal/mol
SAGGIKLPPWFKKLADILQEEGYKIRIEPVNGYWVIRVDGKVYPSPEDMEDNRDDPGVDRVIVIPFPSAGGS [r16_275_TrROS]	2.78 ± 0.14 kcal/mol	3.45 ± 0.12 kcal/mol	3.26 ± 0.15 kcal/mol
SAGGITIEWERNPDGYPNIKIQIRAPNGKKVAKLPIQFDPNDGGMTKLDLKKLLKEINLPPNVEVEFISAGG [r13_479_TrROS]	1.45 ± 0.05 kcal/mol	1.22 ± 0.13 kcal/mol	1.34 ± 0.13 kcal/mol
SAGGITVEVEYERTEGGYYRVTVTLRDPDGNPIEIEYPMPPGDPGMTQDEMKDKAVEWALKIAQELNSAGGS [r8_123_TrROS]	3.94 ± 0.12 kcal/mol	3.971 ± 0.031 kcal/mol	3.96 ± 0.088 kcal/mol
SAGGIVAADVSPDGTVYPISPEAVRALVDAIRDRYGFDVKVTITEARYGDRWVTVIPIELTGLSPEEASAGG [r13_790_TrMRF]	1.31 ± 0.04 kcal/mol	1.54 ± 0.02 kcal/mol	1.5 ± 0.08 kcal/mol
SAGGIWIKVPDGGWVRIQIEHPGNGRPREETIPGGDIKDLIKSLSSSPDFPNYKVKIEVWDGGKPKPISAGG [r13_914_TrROS]	0.923 ± 0.03 kcal/mol	1.71 ± 0.058 kcal/mol	1.46 ± 0.14 kcal/mol
SAGGIYRVEIEIPGGNTIEFMIPGATEEMAKEIANELAQHFNPGDIKIEVYPIPPVKVDPEDGKWKWSAGGS [r8_167_TrROS]	0.579 ± 0.039 kcal/mol	1.41 ± 0.1 kcal/mol	1.13 ± 0.095 kcal/mol
SAGGKAKIVEIKYNEETGTVTIKIKNEDGEEYEISIKLPPGAKIEIDEDGNITIKDIPAEQIEVRKVSAGGS [r16_515_TrROS_Hall]	0.895 ± 0.03 kcal/mol	1.68 ± 0.056 kcal/mol	1.46 ± 0.12 kcal/mol
SAGGKDIKVTVEKVGDELYILVEASKEEVEALLKAGKKEITIEINGKKVKVKAVKLPDGTVLFRVRLESAGG [r13_171_TrROS_Hall]	3.28 ± 0.064 kcal/mol	4.23 ± 0.052 kcal/mol	3.96 ± 0.065 kcal/mol
SAGGKEEKVVEIEIKKEKLKKSKDGKVYSAEEIAKKLKKELPEENVEVEIVSYDKEKGVVKIKIKVKSAGGS [r16_284_TrROS_Hall]	1.51 ± 0.12 kcal/mol	1.74 ± 0.18 kcal/mol	1.7 ± 0.36 kcal/mol
SAGGKEFIEKLGNNATIEIDTPNGGKVKINLKIEKVKPGKYVIKGEVTVYNPNTNKPVKFPYTLTIESAGGS [r8_473_TrMRF]	2.39 ± 0.2 kcal/mol	3.75 ± 0.076 kcal/mol	3.13 ± 0.18 kcal/mol
